Results taken from article doi:10.1101/2022.09.11.507496.

Target: VSV:H2-K^b (mouse | not stated) (UniProt P03521)
Experiment: micropipette adhesion frequency

Chain of UniProt P03521 (P03521 whole entry, looked up): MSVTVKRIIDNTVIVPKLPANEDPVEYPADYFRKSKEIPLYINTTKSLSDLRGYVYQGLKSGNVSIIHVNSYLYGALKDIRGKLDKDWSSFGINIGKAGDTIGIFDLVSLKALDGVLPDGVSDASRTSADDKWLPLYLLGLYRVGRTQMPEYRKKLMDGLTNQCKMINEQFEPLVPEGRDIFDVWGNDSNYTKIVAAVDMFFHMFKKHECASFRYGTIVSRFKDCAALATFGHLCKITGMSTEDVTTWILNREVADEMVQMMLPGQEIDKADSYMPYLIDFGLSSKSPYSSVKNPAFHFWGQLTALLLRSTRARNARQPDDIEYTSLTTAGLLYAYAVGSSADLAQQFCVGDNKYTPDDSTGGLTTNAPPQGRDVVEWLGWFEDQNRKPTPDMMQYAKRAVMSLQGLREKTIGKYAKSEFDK

Substance “CD8 on CD8+ T cells of OT-I mice (from UniProt P01731;P10300) (receptor)” has a fold smaller 2D affinity than TCR–pMHC of 500 fold.
